Test results as given in paper PMC4663267, “A Novel C-Terminal Domain of RecJ is Critical for Interaction with HerA in Deinococcus radiodurans”.

Key:
DrHerA = molecular target: T1, DrHerA (Deinococcus radiodurans, UniProt Q9RW32 1-618); test: EMSA; HerA alone; EMSA: 100 nM DNA, 80 mM NaCl, 20 mM Tris-HCl pH 7.5, 1 mM DTT, 30 C, 10 min, 5% TBE native PAGE; settings: protein: recombinant; tags: N-terminal His6; chain copies: 6; label: 5' FAM; single strand
T1 sequence: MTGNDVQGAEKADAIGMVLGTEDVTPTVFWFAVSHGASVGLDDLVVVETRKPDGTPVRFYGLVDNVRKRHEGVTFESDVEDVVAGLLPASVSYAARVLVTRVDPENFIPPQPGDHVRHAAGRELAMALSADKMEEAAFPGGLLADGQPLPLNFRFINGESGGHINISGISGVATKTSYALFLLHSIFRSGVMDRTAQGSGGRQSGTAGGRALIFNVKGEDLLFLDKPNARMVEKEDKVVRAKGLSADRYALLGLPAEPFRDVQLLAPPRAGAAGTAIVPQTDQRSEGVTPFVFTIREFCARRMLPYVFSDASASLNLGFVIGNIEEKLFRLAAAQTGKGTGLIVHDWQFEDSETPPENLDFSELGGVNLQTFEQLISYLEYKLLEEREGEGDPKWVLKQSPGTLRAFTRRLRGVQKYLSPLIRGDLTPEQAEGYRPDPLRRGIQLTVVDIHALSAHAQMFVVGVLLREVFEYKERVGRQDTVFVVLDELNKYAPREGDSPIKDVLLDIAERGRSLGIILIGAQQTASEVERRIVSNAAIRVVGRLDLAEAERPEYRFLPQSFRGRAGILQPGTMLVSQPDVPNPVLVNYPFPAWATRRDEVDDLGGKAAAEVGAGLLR

DrRecJ = molecular target: T2, DrRecJ (Deinococcus radiodurans, UniProt D0EM60 1-705); test: EMSA; DNA:RecJ 1:2 to 1:16; no metal added; EMSA: 100 nM DNA, 80 mM NaCl, 20 mM Tris-HCl pH 7.5, 1 mM DTT, 30 C, 10 min, 5% TBE native PAGE; settings: protein: recombinant; tags: HMT (His6-MBP) tag removed by TEV; label: 5' FAM; single strand
T2 sequence: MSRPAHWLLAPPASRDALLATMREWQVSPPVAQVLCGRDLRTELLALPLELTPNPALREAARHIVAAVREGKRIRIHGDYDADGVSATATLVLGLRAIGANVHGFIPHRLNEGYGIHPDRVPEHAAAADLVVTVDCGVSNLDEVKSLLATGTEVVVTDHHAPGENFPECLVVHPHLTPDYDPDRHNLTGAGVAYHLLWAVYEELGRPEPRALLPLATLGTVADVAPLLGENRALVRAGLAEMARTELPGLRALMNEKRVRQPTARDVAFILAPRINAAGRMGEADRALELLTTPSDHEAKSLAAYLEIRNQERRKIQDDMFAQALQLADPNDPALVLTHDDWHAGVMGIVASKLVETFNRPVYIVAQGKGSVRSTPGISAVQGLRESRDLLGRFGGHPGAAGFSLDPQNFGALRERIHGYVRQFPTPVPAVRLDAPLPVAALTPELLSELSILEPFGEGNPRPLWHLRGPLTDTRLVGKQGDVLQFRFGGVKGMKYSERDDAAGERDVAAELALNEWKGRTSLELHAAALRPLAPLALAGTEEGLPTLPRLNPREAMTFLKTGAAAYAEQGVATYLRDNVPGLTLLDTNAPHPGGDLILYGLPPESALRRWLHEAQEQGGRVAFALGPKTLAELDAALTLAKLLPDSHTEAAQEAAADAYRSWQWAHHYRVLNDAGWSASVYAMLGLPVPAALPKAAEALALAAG

B1: O1 (10 nt ssDNA) (ssDNA)
DNA: AAAAAAAAAA
- binding result (DrHerA): no binding
- binding result (DrRecJ): binds
